Data taken from patent US20240279278A1, “NMU RECEPTOR 2 AGONISTS” (Boehringer Ingelheim International GmbH, priority 2023, published 2024).
Starred links: 1 amine or outer side, 2 acyl side, 3 side chain; linkers in the order of their positions; H or OH if unused. Non-standard residues stand in square brackets, D forms with d. *: point of attachment. Pipz(1-CH2CO,4-CH2CH2NH) = O=C(CN1CCN(CCN[*:1])CC1)[*:2]; C18 diacid = O=C(O)CCCCCCCCCCCCCCCCC(=O)*; γGlu = O=C(O)[C@H](CCC(=O)[*:2])N[*:1]; NMeL = CN[C@@H](CC(C)C)C(=O)O; hLys = NCCCCC[C@H](N)C(=O)O; Nle = CCCC[C@H](N)C(=O)O; Sar = CNCC(=O)O

T1: human neuromedin U receptor 1 (human, UniProt Q9HB89 24-426)
T1 sequence (looked up): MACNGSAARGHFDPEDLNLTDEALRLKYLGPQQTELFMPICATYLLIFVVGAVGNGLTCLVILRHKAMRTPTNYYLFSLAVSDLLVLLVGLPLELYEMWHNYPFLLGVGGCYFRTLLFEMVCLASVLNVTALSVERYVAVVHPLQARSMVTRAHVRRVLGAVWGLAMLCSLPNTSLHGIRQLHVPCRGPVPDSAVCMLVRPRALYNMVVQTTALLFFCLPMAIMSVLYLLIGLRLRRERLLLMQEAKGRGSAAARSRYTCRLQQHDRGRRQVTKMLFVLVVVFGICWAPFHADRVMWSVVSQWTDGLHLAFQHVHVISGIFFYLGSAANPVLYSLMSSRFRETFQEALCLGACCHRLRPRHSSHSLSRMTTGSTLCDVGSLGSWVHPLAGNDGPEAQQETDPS

B1: C18DA-gGlu3-Sar9-AEPipAc-Tyr-Phe-NMeLeu-Nle-Orn-NMeAla-Arg-Gly-NH2 (peptide)
peptide: EEEXXXXXXXXXXYFLXXARG
HELM: PEPTIDE1{[O=C(O)CCCCCCCCCCCCCCCCC(=O)[*:2]].[gGlu].[gGlu].[gGlu].[Sar].[Sar].[Sar].[Sar].[Sar].[Sar].[Sar].[Sar].[Sar].[O=C(CN1CCN(CCN[*:1])CC1)[*:2]].Y.F.[meL].[Nle].[Orn].[meA].R.G.[am]}$$$$V2.0
SMILES: CCCC[C@H](NC(=O)[C@H](CC(C)C)N(C)C(=O)[C@H](Cc1ccccc1)NC(=O)[C@H](Cc1ccc(O)cc1)NC(=O)CN1CCN(CCNC(=O)CN(C)C(=O)CN(C)C(=O)CN(C)C(=O)CN(C)C(=O)CN(C)C(=O)CN(C)C(=O)CN(C)C(=O)CN(C)C(=O)CN(C)C(=O)CC[C@H](NC(=O)CC[C@H](NC(=O)CC[C@H](NC(=O)CCCCCCCCCCCCCCCCC(=O)O)C(=O)O)C(=O)O)C(=O)O)CC1)C(=O)N[C@@H](CCCN)C(=O)N(C)[C@@H](C)C(=O)N[C@@H](CCCNC(=N)N)C(=O)NCC(N)=O
B2: C18DA-gGlu3-Sar9-AEPipAc-Tyr-Phe-NMeLeu-Nle-Arg-NMeAla-Arg-Gly-NH2 (peptide)
peptide: EEEXXXXXXXXXXYFLXRARG
HELM: PEPTIDE1{[O=C(O)CCCCCCCCCCCCCCCCC(=O)[*:2]].[gGlu].[gGlu].[gGlu].[Sar].[Sar].[Sar].[Sar].[Sar].[Sar].[Sar].[Sar].[Sar].[O=C(CN1CCN(CCN[*:1])CC1)[*:2]].Y.F.[meL].[Nle].R.[meA].R.G.[am]}$$$$V2.0
SMILES: CCCC[C@H](NC(=O)[C@H](CC(C)C)N(C)C(=O)[C@H](Cc1ccccc1)NC(=O)[C@H](Cc1ccc(O)cc1)NC(=O)CN1CCN(CCNC(=O)CN(C)C(=O)CN(C)C(=O)CN(C)C(=O)CN(C)C(=O)CN(C)C(=O)CN(C)C(=O)CN(C)C(=O)CN(C)C(=O)CN(C)C(=O)CC[C@H](NC(=O)CC[C@H](NC(=O)CC[C@H](NC(=O)CCCCCCCCCCCCCCCCC(=O)O)C(=O)O)C(=O)O)C(=O)O)CC1)C(=O)N[C@@H](CCCNC(=N)N)C(=O)N(C)[C@@H](C)C(=O)N[C@@H](CCCNC(=N)N)C(=O)NCC(N)=O
B3: C18DA-gGlu3-Sar12-PipAc-Tyr-Phe-NMeLeu-Nle-Arg-Pro-Arg-Gly-NH2 (peptide)
peptide: EEEXXXXXXXXXXXXXYFLXRPRG
HELM: PEPTIDE1{[O=C(O)CCCCCCCCCCCCCCCCC(=O)[*:2]].[gGlu].[gGlu].[gGlu].[Sar].[Sar].[Sar].[Sar].[Sar].[Sar].[Sar].[Sar].[Sar].[Sar].[Sar].[Sar].[O=C(CN1CCN([*:1])CC1)[*:2]].Y.F.[meL].[Nle].R.P.R.G.[am]}$$$$V2.0
SMILES: CCCC[C@H](NC(=O)[C@H](CC(C)C)N(C)C(=O)[C@H](Cc1ccccc1)NC(=O)[C@H](Cc1ccc(O)cc1)NC(=O)CN1CCN(C(=O)CN(C)C(=O)CN(C)C(=O)CN(C)C(=O)CN(C)C(=O)CN(C)C(=O)CN(C)C(=O)CN(C)C(=O)CN(C)C(=O)CN(C)C(=O)CN(C)C(=O)CN(C)C(=O)CN(C)C(=O)CC[C@H](NC(=O)CC[C@H](NC(=O)CC[C@H](NC(=O)CCCCCCCCCCCCCCCCC(=O)O)C(=O)O)C(=O)O)C(=O)O)CC1)C(=O)N[C@@H](CCCNC(=N)N)C(=O)N1CCC[C@H]1C(=O)N[C@@H](CCCNC(=N)N)C(=O)NCC(N)=O
B4: C18DA-gGlu3-Sar15-PipAc-Tyr-Phe-NMeLeu-Nle-Arg-Pro-Arg-Gly-NH2 (peptide)
peptide: EEEXXXXXXXXXXXXXXXXYFLXRPRG
HELM: PEPTIDE1{[O=C(O)CCCCCCCCCCCCCCCCC(=O)[*:2]].[gGlu].[gGlu].[gGlu].[Sar].[Sar].[Sar].[Sar].[Sar].[Sar].[Sar].[Sar].[Sar].[Sar].[Sar].[Sar].[Sar].[Sar].[Sar].[O=C(CN1CCN([*:1])CC1)[*:2]].Y.F.[meL].[Nle].R.P.R.G.[am]}$$$$V2.0
SMILES: CCCC[C@H](NC(=O)[C@H](CC(C)C)N(C)C(=O)[C@H](Cc1ccccc1)NC(=O)[C@H](Cc1ccc(O)cc1)NC(=O)CN1CCN(C(=O)CN(C)C(=O)CN(C)C(=O)CN(C)C(=O)CN(C)C(=O)CN(C)C(=O)CN(C)C(=O)CN(C)C(=O)CN(C)C(=O)CN(C)C(=O)CN(C)C(=O)CN(C)C(=O)CN(C)C(=O)CN(C)C(=O)CN(C)C(=O)CN(C)C(=O)CC[C@H](NC(=O)CC[C@H](NC(=O)CC[C@H](NC(=O)CCCCCCCCCCCCCCCCC(=O)O)C(=O)O)C(=O)O)C(=O)O)CC1)C(=O)N[C@@H](CCCNC(=N)N)C(=O)N1CCC[C@H]1C(=O)N[C@@H](CCCNC(=N)N)C(=O)NCC(N)=O
B5: C18DA-gGlu2-Sar6-AEPipAc-Tyr-Phe-NMeLeu-Nle-Arg-Pro-Arg-Gly-NH2 (peptide)
peptide: EEXXXXXXXYFLXRPRG
HELM: PEPTIDE1{[O=C(O)CCCCCCCCCCCCCCCCC(=O)[*:2]].[gGlu].[gGlu].[Sar].[Sar].[Sar].[Sar].[Sar].[Sar].[O=C(CN1CCN(CCN[*:1])CC1)[*:2]].Y.F.[meL].[Nle].R.P.R.G.[am]}$$$$V2.0
SMILES: CCCC[C@H](NC(=O)[C@H](CC(C)C)N(C)C(=O)[C@H](Cc1ccccc1)NC(=O)[C@H](Cc1ccc(O)cc1)NC(=O)CN1CCN(CCNC(=O)CN(C)C(=O)CN(C)C(=O)CN(C)C(=O)CN(C)C(=O)CN(C)C(=O)CN(C)C(=O)CC[C@H](NC(=O)CC[C@H](NC(=O)CCCCCCCCCCCCCCCCC(=O)O)C(=O)O)C(=O)O)CC1)C(=O)N[C@@H](CCCNC(=N)N)C(=O)N1CCC[C@H]1C(=O)N[C@@H](CCCNC(=N)N)C(=O)NCC(N)=O
B6: C18DA-gGlu3-Sar6-AEPipAc-Tyr-Phe-NMeLeu-Nle-Arg-Pro-Arg-Gly-NH2 (peptide)
peptide: EEEXXXXXXXYFLXRPRG
HELM: PEPTIDE1{[O=C(O)CCCCCCCCCCCCCCCCC(=O)[*:2]].[gGlu].[gGlu].[gGlu].[Sar].[Sar].[Sar].[Sar].[Sar].[Sar].[O=C(CN1CCN(CCN[*:1])CC1)[*:2]].Y.F.[meL].[Nle].R.P.R.G.[am]}$$$$V2.0
SMILES: CCCC[C@H](NC(=O)[C@H](CC(C)C)N(C)C(=O)[C@H](Cc1ccccc1)NC(=O)[C@H](Cc1ccc(O)cc1)NC(=O)CN1CCN(CCNC(=O)CN(C)C(=O)CN(C)C(=O)CN(C)C(=O)CN(C)C(=O)CN(C)C(=O)CN(C)C(=O)CC[C@H](NC(=O)CC[C@H](NC(=O)CC[C@H](NC(=O)CCCCCCCCCCCCCCCCC(=O)O)C(=O)O)C(=O)O)C(=O)O)CC1)C(=O)N[C@@H](CCCNC(=N)N)C(=O)N1CCC[C@H]1C(=O)N[C@@H](CCCNC(=N)N)C(=O)NCC(N)=O
B7: C18DA-gGlu3-Sar15-PipAc-Tyr-Phe-NMeLeu-Nle-Dbu-Pro-Arg-Gly-NH2 (peptide)
peptide: EEEXXXXXXXXXXXXXXXXYFLXXPRG
HELM: PEPTIDE1{[O=C(O)CCCCCCCCCCCCCCCCC(=O)[*:2]].[gGlu].[gGlu].[gGlu].[Sar].[Sar].[Sar].[Sar].[Sar].[Sar].[Sar].[Sar].[Sar].[Sar].[Sar].[Sar].[Sar].[Sar].[Sar].[O=C(CN1CCN([*:1])CC1)[*:2]].Y.F.[meL].[Nle].[Dab].P.R.G.[am]}$$$$V2.0
SMILES: CCCC[C@H](NC(=O)[C@H](CC(C)C)N(C)C(=O)[C@H](Cc1ccccc1)NC(=O)[C@H](Cc1ccc(O)cc1)NC(=O)CN1CCN(C(=O)CN(C)C(=O)CN(C)C(=O)CN(C)C(=O)CN(C)C(=O)CN(C)C(=O)CN(C)C(=O)CN(C)C(=O)CN(C)C(=O)CN(C)C(=O)CN(C)C(=O)CN(C)C(=O)CN(C)C(=O)CN(C)C(=O)CN(C)C(=O)CN(C)C(=O)CC[C@H](NC(=O)CC[C@H](NC(=O)CC[C@H](NC(=O)CCCCCCCCCCCCCCCCC(=O)O)C(=O)O)C(=O)O)C(=O)O)CC1)C(=O)N[C@@H](CCN)C(=O)N1CCC[C@H]1C(=O)N[C@@H](CCCNC(=N)N)C(=O)NCC(N)=O
B8: C18DA-gGlu3-Sar9-AEPipAc-Tyr-Phe-NMeLeu-Nle-Arg-Pro-Arg-Gly-NH2 (peptide)
peptide: EEEXXXXXXXXXXYFLXRPRG
HELM: PEPTIDE1{[O=C(O)CCCCCCCCCCCCCCCCC(=O)[*:2]].[gGlu].[gGlu].[gGlu].[Sar].[Sar].[Sar].[Sar].[Sar].[Sar].[Sar].[Sar].[Sar].[O=C(CN1CCN(CCN[*:1])CC1)[*:2]].Y.F.[meL].[Nle].R.P.R.G.[am]}$$$$V2.0
SMILES: CCCC[C@H](NC(=O)[C@H](CC(C)C)N(C)C(=O)[C@H](Cc1ccccc1)NC(=O)[C@H](Cc1ccc(O)cc1)NC(=O)CN1CCN(CCNC(=O)CN(C)C(=O)CN(C)C(=O)CN(C)C(=O)CN(C)C(=O)CN(C)C(=O)CN(C)C(=O)CN(C)C(=O)CN(C)C(=O)CN(C)C(=O)CC[C@H](NC(=O)CC[C@H](NC(=O)CC[C@H](NC(=O)CCCCCCCCCCCCCCCCC(=O)O)C(=O)O)C(=O)O)C(=O)O)CC1)C(=O)N[C@@H](CCCNC(=N)N)C(=O)N1CCC[C@H]1C(=O)N[C@@H](CCCNC(=N)N)C(=O)NCC(N)=O
B9: C18DA-gGlu3-Sar9-AEPipAc-Tyr-Phe-NMeLeu-Nle-hLys-Pro-Arg-Gly-NH2 (peptide)
peptide: {C18 diacid}-[γGlu][γGlu][γGlu][Sar][Sar][Sar][Sar][Sar][Sar][Sar][Sar][Sar][Pipz(1-CH2CO,4-CH2CH2NH)]YF[NMeL][Nle][hLys]PRG-NH2
SMILES: CCCC[C@H](NC(=O)[C@H](CC(C)C)N(C)C(=O)[C@H](Cc1ccccc1)NC(=O)[C@H](Cc1ccc(O)cc1)NC(=O)CN1CCN(CCNC(=O)CN(C)C(=O)CN(C)C(=O)CN(C)C(=O)CN(C)C(=O)CN(C)C(=O)CN(C)C(=O)CN(C)C(=O)CN(C)C(=O)CN(C)C(=O)CC[C@H](NC(=O)CC[C@H](NC(=O)CC[C@H](NC(=O)CCCCCCCCCCCCCCCCC(=O)O)C(=O)O)C(=O)O)C(=O)O)CC1)C(=O)N[C@@H](CCCCCN)C(=O)N1CCC[C@H]1C(=O)N[C@@H](CCCNC(=N)N)C(=O)NCC(N)=O

Target: T1, human neuromedin U receptor 1
Test: cell-based or functional assay

Compared with B1, B2 is lower in “EC50 (hNMUR1) buffer” value: greater than 1 µM for the first, 0.54 µM for the second.

B3 and B4 are within 1.5-fold of each other in “EC50 (hNMUR1) buffer” value: 0.11 µM for the first, 0.13 µM for the second.

Compared with B5, B6 is 1.6-fold lower in “EC50 (hNMUR1) buffer” value: 0.13 µM for the first, 0.082 µM for the second.

Going from B7 to B8, the “EC50 (hNMUR1) buffer” value falls from 1.1 µM to 0.15 µM (7.3-fold).

In the case of B9, the “EC50 (hNMUR1) buffer” value is reported as 1.4 µM.
